# Results published in publication PMC6934973 (Iranian Journal of Pharmaceutical Research : IJPR, 2019).
# Test: Parallel Artificial Membrane Permeability Assay (PAMPA)
# Type: in vitro ADME
# Details: for Papp: read-out: Pe × 10-6 (cm/s), effective permeability; for permeability compared to norbuprenorphine-Leu-enkephalin: result in words
# [1] = 200 μM, pH 7.4, 20% 1-propanol cosolvent, 4 h
# [2] = 200 μM, pH 7.4, 20% 1-propanol cosolvent, 4 h, room temperature
smiles,measurement,setting,value
COc1ccc2c3c1O[C@@H]1[C@]34CCN(C(=O)[C@H](CCSC)NC(=O)[C@H](Cc3ccccc3)NC(=O)CNC(=O)CNC(=O)[C@@H](N)Cc3ccc(O)cc3)[C@H](C2)[C@]42CC[C@@]1(OC)/C(=C(/C)C(C)(C)C)C2 [Compound 15],% PAMPA Transport after 4h,[1],2.9%
same,%Membrane retention,[2],0%
same,Papp,[2],1.42 ×10⁻⁶ cm/s
COc1ccc2c3c1O[C@@H]1[C@]34CCN(C(=O)[C@H](CCSC)NC(=O)[C@H](Cc3ccccc3)NC(=O)CNC(=O)CNC(=O)[C@@H](N)Cc3ccc(O)cc3)[C@H](C2)[C@]42CC[C@@]1(OC)/C(=C(\C)C(C)(C)C)C2 [Compound 14],% PAMPA Transport after 4h,[1],1.6%
same,%Membrane retention,[2],0%
same,Papp,[2],0.77 ×10⁻⁶ cm/s
"CSCC[C@H](NC(=O)[C@H](Cc1ccccc1)NC(=O)CNC(=O)CNC(=O)[C@@H](N)Cc1ccc(O)cc1)C(=O)O [Standard Met-enkephalin, Met-enkephalin, reference compound]",% PAMPA Transport after 4h,[1],0.2%
same,%Membrane retention,[2],0%
same,Papp,[2],0.09 ×10⁻⁶ cm/s
"CC(C)NCC(O)COc1cccc2ccccc12 (centres unmarked) [Propanolol, reference compound]",% PAMPA Transport after 4h,[1],9.9%
same,%Membrane retention,[2],21.8%
same,"Pe × 10-6 (cm/s), effective permeability",[2],5.23 × 10-6 cm/s
CO[C@]12CC[C@@]3(C/C1=C(\C)C(C)(C)C)[C@H]1Cc4ccc(O)c5c4[C@@]3(CCN1C(=O)[C@H](CC(C)C)NC(=O)[C@H](Cc1ccccc1)NC(=O)CNC(=O)CNC(=O)[C@@H](N)Cc1ccc(O)cc1)[C@H]2O5 [Compound 18],% PAMPA Transport after 4h,[1],4.3%
same,%Membrane retention,[2],30.9%
same,Papp,[2],2.13 ×10⁻⁶ cm/s
CO[C@]12CC[C@@]3(CC1=C(C)C(C)(C)C)[C@H]1Cc4ccc(O)c5c4[C@@]3(CCN1C(=O)CCC(=O)N[C@@H](Cc1ccc(O)cc1)C(=O)NCC(=O)NCC(=O)N[C@@H](Cc1ccccc1)C(=O)N[C@@H](CC(C)C)C(=O)O)[C@H]2O5 [Compound 23],% PAMPA Transport after 4h,[1],1.2%
same,%Membrane retention,[2],0%
same,Papp,[2],0.63 ×10⁻⁶ cm/s
same,permeability compared to norbuprenorphine-Leu-enkephalin,,lower permeability
"CC(C)C[C@H](NC(=O)[C@H](Cc1ccccc1)NC(=O)CNC(=O)CNC(=O)[C@@H](N)Cc1ccc(O)cc1)C(=O)O [Standard Leu-enkephalin, Leu-enkephalin, reference compound]",% PAMPA Transport after 4h,[1],0.8%
same,%Membrane retention,[2],0%
same,Papp,[2],0.38 ×10⁻⁶ cm/s
CO[C@]12CC[C@@]3(C/C1=C(/C)C(C)(C)C)[C@H]1Cc4ccc(O)c5c4[C@@]3(CCN1C(=O)[C@H](CC(C)C)NC(=O)[C@H](Cc1ccccc1)NC(=O)CNC(=O)CNC(=O)[C@@H](N)Cc1ccc(O)cc1)[C@H]2O5 [Compound 17],% PAMPA Transport after 4h,[1],6.8%
same,%Membrane retention,[2],10.3%
same,Papp,[2],3.46 ×10⁻⁶ cm/s
CO[C@]12CC[C@@]3(CC1=C(C)C(C)(C)C)[C@H]1Cc4ccc(O)c5c4[C@@]3(CCN1C(=O)c1ccccc1C(=O)N[C@@H](Cc1ccc(O)cc1)C(=O)NCC(=O)NCC(=O)N[C@@H](Cc1ccccc1)C(=O)N[C@@H](CC(C)C)C(=O)O)[C@H]2O5 [Compound 24],% PAMPA Transport after 4h,[1],1.9%
same,%Membrane retention,[2],0%
same,Papp,[2],0.92 ×10⁻⁶ cm/s
same,permeability compared to norbuprenorphine-Leu-enkephalin,,lower permeability
